Data reported in patent US11396522B2, “Bis-acetal-based substrates for imaging exo-glycosidase activity” (ALECTOS THERAPEUTICS INC., priority 2017, dated 2022).

B1: GBA1 (Homo sapiens) (protein)
chain: ARPCIPKSFGYSSVVCVCNATYCDSFDPPTFPALGTFSRYESTRSGRRMELSMGPIQANHTGTGLLLTLQPEQKFQKVKGFGGAMTDAAALNILALSPPAQNLLLKSYFSEEGIGYNIIRVPMASCDFSIRTYTYADTPDDFQLHNFSLPEEDTKLKIPLIHRALQLAQRPVSLLASPWTSPTWLKTNGAVNGKGSLKGQPGDIYHQTWARYFVKFLDAYAEHKLQFWAVTAENEPSAGLLSGYPFQCLGFTPEHQRDFIARDLGPTLANSTHHNVRLLMLDDQRLLLPHWAKVVLTDPEAAKYVHGIAVHWYLDFLAPAKATLGETHRLFPNTMLFASEACVGSKFWEQSVRLGSWDRGMQYSHSIITNLLYHVVGWTDWNLALNPEGGPNWVRNFVDSPIIVDITKDTFYKQPMFYHLGHFSKFIPEGSQRVGLVASQKNDLDAVALMHPDGSAVVVVLNRSSKDVPLTIKDPAVGFLETISPGYSIHTYLWRRQ
notes: purchased R&D Systems
B2: human O-GlcNAcase (hOGA) (Homo sapiens) (protein)
chain: MVQKESQATLEERESELSSNPAASAGASLEPPAAPAPGEDNPAGAGGAAVAGAAGGARRFLCGVVEGFYGRPWVMEQRKELFRRLQKWELNTYLYAPKDDYKHRMFWREMYSVEEAEQLMTLISAAREYEIEFIYAISPGLDITFSNPKEVSTLKRKLDQVSQFGCRSFALLFDDIDHNMCAADKEVFSSFAHAQVSITNEIYQYLGEPETFLFCPTEYCGTFCYPNVSQSPYLRTVGEKLLPGIEVLWTGPKVVSKEIPVESIEEVSKIIKRAPVIWDNIHANDYDQKRLFLGPYKGRSTELIPRLKGVLTNPNCEFEANYVAIHTLATWYKSNMNGVRKDVVMTDSEDSTVSIQIKLENEGSDEDIETDVLYSPQMALKLALTEWLQEFGVPHQYSSRQVAHSGAKASVVDGTPLVAAPSLNATTVVTTVYQEPIMSQGAALSGEPTTLTKEEEKKQPDEEPMDMVVEKQEETDHKNDNQILSEIVEAKMAEELKPMDTDKESIAESKSPEMSMQEDCISDIAPMQTDEQTNKEQFVPGPNEKPLYTAEPVTLEDLQLLADLFYLPYEHGPKGAQMLREFQWLRANSSVVSVNCKGKDSEKIEEWRSRAAKFEEMCGLVMGMFTRLSNCANRTILYDMYSYVWDIKSIMSMVKSFVQWLGCRSHSSAQFLIGDQEPWAFRGGLAGEFQRLLPIDGANDLFFQPPPLTPTSKVYTIRPYFPKDEASVYKICREMYDDGVGLPFQSQPDLIGDKLVGGLLSLSLDYCFVLEDEDGICGYALGTVDVTPFIKKCKISWIPFMQEKYTKPNGDKELSEAEKIMLSFHEEQEVLPETFLANFPSLIKMDIHKKVTDPSVAKSMMACLLSSLKANGSRGAFCEVRPDDKRILEFYSKLGCFEIAKMEGFPKDVVILGRSL
notes: started by addition of hOGA (WT, Full-length, expressed in E. coli. as previously described); made in house; host or cells: E. coli

Assays:
Type in all cases: biochemical, human
[1] = substrate: CN(C)c1ccc(/N=N/c2ccc(C(=O)NCc3cn(CCOCCOC(CC(=O)NCCNc4cccc5c(S(=O)(=O)O)cccc45)O[C@@H]4O[C@H](CO)[C@@H](O)[C@H](O)[C@H]4O)nn3)cc2)cc1; test: In vitro kinetic assay with GBA1; conditions: other: 20 nM GBA1, initial rates
[2] = substrate: CC(=O)N[C@H]1[C@H](O[C@@H](OCCOCCn2cc(CNC(=O)c3ccc(/N=N/c4ccc(N(C)C)cc4)cc3)nn2)[C@@](C)(O)C(=O)NCCNc2cccc3c(S(=O)(=O)O)cccc23)O[C@H](CO)[C@@H](O)[C@@H]1O; test: In vitro kinetic assay with hOGA; conditions: other: PBS, 37° C., recombinant hOGA
Protocol: (§1) For some experiments, fluorescence kinetic assays were performed using a Varian Cary Eclipse Spectrophotometer set for 335/493 nm excitation/emission wavelengths. Slits were set at 10 nm and the detector was set on Medium voltage. Enzymatic reactions with human OGA were carried out in PBS at 37° C. and were started by addition of hOGA (WT, Full-length, expressed in E. coli. as previously described) in a total volume of 160 μL (Starna sub-micro Fluorometer cuvette). For measurements of rates using different concentrations of substrates, a hOGA concentration of 100 nM was used. For hOGA titration, 25 μM of Glyco-BABS were added to various concentration of hOGA. […] EDANS standard curve was established using endpoint fluorescence measurements of serial dilutions of EDANS in the relevant buffer using the same instrument parameters. Inner-Filter effect measurements were carried out in cuvette by measuring fluorescence of several concentrations of EDANS in presence of various concentrations of GlcNAc-BABS. Kinetics with Glc-BABS and GBA enzymes (GBA1 and GBA3 purchased from R&D Systems), kinetics with GALC (R&D systems) and Gal-BABS, pH stability, quenching efficiency, some inner-filter effect experiments and lysates experiments were carried out using a Molecular Devices SpectraMax i3× plate reader. […]

[3] = substrate: CC(=O)N[C@H]1[C@H](O[C@@H](OCCOCCn2cc(CNC(=O)c3ccc(/N=N/c4ccc(N(C)C)cc4)cc3)nn2)[C@@](C)(Br)C(=O)NCCNc2cccc3c(S(=O)(=O)O)cccc23)O[C@H](CO)[C@@H](O)[C@@H]1O; test: In vitro kinetic assay with hOGA; conditions: other: PBS, 37° C., recombinant hOGA
Protocol: as §1

Protein | kcat/Km [1] [M⁻¹ s⁻¹] | kcat/Km [2] [M⁻¹ s⁻¹] | kcat/Km [3] [M⁻¹ s⁻¹]
B1 | 130 |  | 
B2 |  | 519 | 263
